Data as given in PMC3527935.
pKd: −log10 of the molar value.

How the values were obtained:
[1] = target: soluble LDL receptor ectodomain (UniProt P01130); experiment: BLI
[2] = target: soluble LDL receptor ectodomain (UniProt P01130); experiment: ELISA

soluble LDL receptor ectodomain, sequence (P01130 22-788): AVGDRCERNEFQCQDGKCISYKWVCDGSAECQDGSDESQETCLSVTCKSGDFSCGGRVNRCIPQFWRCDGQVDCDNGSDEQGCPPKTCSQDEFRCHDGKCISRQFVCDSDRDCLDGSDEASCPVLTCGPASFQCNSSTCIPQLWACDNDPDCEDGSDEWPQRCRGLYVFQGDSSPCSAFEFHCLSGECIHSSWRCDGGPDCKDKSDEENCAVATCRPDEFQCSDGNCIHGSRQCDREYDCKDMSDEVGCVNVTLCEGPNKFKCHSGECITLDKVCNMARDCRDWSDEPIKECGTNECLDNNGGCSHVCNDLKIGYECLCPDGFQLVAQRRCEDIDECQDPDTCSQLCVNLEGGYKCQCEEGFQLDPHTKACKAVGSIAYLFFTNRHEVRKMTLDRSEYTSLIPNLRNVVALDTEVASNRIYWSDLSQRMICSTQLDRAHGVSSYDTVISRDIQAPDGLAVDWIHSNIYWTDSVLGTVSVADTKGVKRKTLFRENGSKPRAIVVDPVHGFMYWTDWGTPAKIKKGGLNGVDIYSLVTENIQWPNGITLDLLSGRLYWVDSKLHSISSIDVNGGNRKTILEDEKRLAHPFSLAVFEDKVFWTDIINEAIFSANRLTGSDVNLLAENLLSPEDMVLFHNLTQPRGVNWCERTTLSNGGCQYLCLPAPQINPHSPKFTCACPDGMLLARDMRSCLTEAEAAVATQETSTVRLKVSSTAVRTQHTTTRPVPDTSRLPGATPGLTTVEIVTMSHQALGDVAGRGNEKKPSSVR

Row | pKd [1] | koff [1] [s⁻¹] | kon [1] [M⁻¹ s⁻¹] | affinity loss against intact PCSK9 (IC50 intact/IC50 cleaved), fold [2] [fold] | Substance
1 | 6.57 | 0.00858 | 32000 | 1.4 | purified hepsin-cleaved PCSK9 (from UniProt Q8NBP7) (natural protein)
2 | 6.45 | 0.0138 | 39000 | 1.1 | purified furin-cleaved PCSK9 (from UniProt Q8NBP7) (natural protein)
